Tests used:
Format in all cases: cell-based, human
[1] = system: T cell lines LW 80, 88, 90 and 93; assay: Specificity and phenotype of APL-reactive T cell lines from patient; details: 25 μg/ml antigen
Experimental: Four cell cultures from one patient ([…], 32% frequency) showing a response (> three-fold over background) were expanded into cell lines (LW 80, 88, 90 and 93) by incubation in IL-2 for 11-14 days (1-2 passages). Once sufficient cells had grown up, they were cultured with either medium alone or 25 μg/ml of either whole MBP, MBP (83-99) or APL NBI-5788. After 24 hours, the supernatants were collected and the level of cytokines determined (see FIGS. 22 to 26). The remaining cultures were pulsed with radiolabeled thymidine and the extent of incorporation determined.

[2] = system: peripheral blood mononuclear cells; assay: Frequency of antigen-reactive T cells in PBMC of untreated MS patients and healthy donors (split-well); parameters: mean frequency of antigen-reactive T cells / frequency of antigen-reactive T cells in healthy subjects / antigen-reactive T cells, % Positive: concentration or dose not given beside the values
Experimental: Immune response to the peptide analog was assessed by measuring the frequency of proliferating peripheral blood T cells using a split-well microtiter method (i.e., number of positive wells {Δ cpm >1000, stimulation index>3} divided by the total number of wells assayed). Peripheral blood mononuclear cells (PBMC) were isolated from venous blood by Ficoll-Hypaque density gradient centrifugation, washed twice and resuspended in complete tissue culture medium (Iscove's modification of Dulbecco's medium containing 10% heat-inactivated, pooled, human A-B serum, 2 mM L-glutamine, 100 U/ml penicillin/streptomycin and 50 μg/ml gentamycin). PBMC from each patient were seeded at 10^5/well in 96 well, U-bottom microtiter plates containing 25 μg/ml whole MBP, 10 μg/ml NBI-5788 or medium alone in a volume of 200 μl. Three days later supernatants were collected and frozen at −80° C. and fresh medium containing IL-2 (10 U/ml) was added. IL-2-containg medium was refreshed on Day 7 and Day 11. On Day 14, the frequency of antigen response was determined by the “split well” technique. Briefly, cells from one primary well were split into replicate experimental wells in the presence of 10^5 freshly isolated autologous, irradiated peripheral blood mononuclear cells (APCs): one containing the original antigen (25 μg/ml) and one without antigen. Two days later supernatants were collected and the wells pulsed with 1 µCi/well [^3H]-thymidine ([…]) for the final 18 hours of culture. ^3H-Thymidine uptake was measured in a beta counter. […] The association between T cell frequency and NBI-5788 treatment was evaluated by χ^2 contingency analysis.

[3] = system: NBI-5788-reactive or MBP-reactive T cell lines from MS patients; assay: Cross-reactivity of T cell lines (TCL) from MS patients, 3H-thymidine proliferation
Experimental: To evaluate the degree of NBI-5788-specific reactivity induced by NBI-5788 treatment, we determined whether NBI-5788-reactive T cell lines generated from untreated or NBI-5788-treated patients cross-reacted with whole MBP or MBP peptide 83-99. T cell lines were generated from positive cultures in the frequency analysis by an additional cycle of co-culture with antigen. Specificity of positive lines was tested by culturing 2×10^4 T cells/well in triplicate with whole MBP, MBP83-99, NBI-5788 or medium alone in the presence of 10^5 APCs in a final volume of 200 μl/well. Two days later supernatants were pooled from replicate wells and frozen at −80° C. Wells were then pulsed with [^3H]-thymidine (1 μCi/well) for the final 18 hours of culture.

[4] = system: Dr2b-restricted T cell clone 5F6; assay: Cytokine production (TNF-α, IFN-γ) by T cell clone 5F6, EIA; details: 3 μM MBP peptide, 24 hours, FIG. 21
Experimental: As discussed in detail below, the production of cytokines may also be assessed. In particular, TNF-α and IFN-γ production are especially interesting. These pro-inflammatory cytokines are thought to play a role in the pathogenesis of the disease. Briefly, T cell clone is incubated in the presence of stimulating MBP peptide and peptide analog or control peptide (SWM) or medium only. After a 24 hour incubation, the levels of TNF-α and IFN-γ in the supernatant are determined using commercially available EIA kits (Endogen, Cambridge, Mass.).
The ability of the peptide analog ligand to influence cytokine production was next measured. The Dr2b-restricted T cell clone 5F6 was incubated in the presence of 3 μM MBP peptide with either 10 μM of NBI-5788 (SEQ ID NO:7) or SWM or medium only. As a control, cells were cultured in the presence of medium alone. After 24 hours, supernatants were removed and the levels of tumor necrosis factor alpha (TNF-α) and interferon-y (IFN-γ) determined using commercially available EIA kits.

[5] = subject MS-2, untreated MS patient
[6] = subject MS-3, untreated MS patient
[7] = subject MS-7, untreated MS patient
[8] = subject MS-8, untreated MS patient
[9] = subject MS-9, untreated MS patient
[10] = subject MS-10, untreated MS patient
[11] = subject MS-11, untreated MS patient
[12] = patient MS-1, dose 20 mg, TCL 4

B1: Whole MBP: whole human myelin basic protein (protein, UniProt P02686 1-304, looked up)
Myelin basic protein: MGNHAGKRELNAEKASTNSETNRGESEKKRNLGELSRTTSEDNEVFGEADANQNNGTSSQDTAVTDSKRTADPKNAWQDAHPADPGSRPHLIRLFSRDAPGREDNTFKDRPSESDELQTIQEDSAATSESLDVMASQKRPSQRHGSKYLATASTMDHARHGFLPRHRDTGILDSIGRFFGGDRGAPKRGSGKDSHHPARTAHYGSLPQKSHGRTQDENPVVHFFKNIVTPRTPPPSQGKGRGLSLSRFSWGAEGQRPGFGYGGRASDYKSAHKGFKGVDAQGTLSKIFKLGGRDSRSGSPMARR
- thymidine incorporation of T cell line ([1]; Line 80 of patient): 1,457 ± 195 cpm
- thymidine incorporation of T cell line ([1]; Line 88 of patient): 977 ± 121 cpm
- thymidine incorporation of T cell line ([1]; Line 90 of patient): 1,604 ± 328 cpm
- thymidine incorporation of T cell line ([1]; Line 93 of patient): 630 ± 28 cpm
- antigen-reactive T cells, Positive/total wells ([2]; Total of healthy donors): 3/96
- antigen-reactive T cells, Positive/total wells ([2]; Total of untreated MS patients): 56/312
- antigen-reactive T cells, % Positive ([2]; healthy donor HD-1): 6.3%
- antigen-reactive T cells, Positive/total wells ([2]; healthy donor HD-1): 3/48
- antigen-reactive T cells, % Positive ([2]; healthy donor HD-2): 0%
- antigen-reactive T cells, Positive/total wells ([2]; healthy donor HD-2): 0/48
- antigen-reactive T cells, % Positive [2, 5]: 6.8%
- antigen-reactive T cells, Positive/total wells [2, 5]: 3/44
- antigen-reactive T cells, % Positive [2, 6]: 25.0%
- antigen-reactive T cells, Positive/total wells [2, 6]: 11/44
- antigen-reactive T cells, % Positive [2, 7]: 11.4%
- antigen-reactive T cells, Positive/total wells [2, 7]: 5/44
- antigen-reactive T cells, % Positive [2, 8]: 52.3%
- antigen-reactive T cells, Positive/total wells [2, 8]: 23/44
- antigen-reactive T cells, % Positive [2, 9]: 16.7%
- antigen-reactive T cells, Positive/total wells [2, 9]: 8/48
- antigen-reactive T cells, % Positive [2, 10]: 2.3%
- antigen-reactive T cells, Positive/total wells [2, 10]: 1/44
- antigen-reactive T cells, % Positive [2, 11]: 11.4%
- antigen-reactive T cells, Positive/total wells [2, 11]: 5/44
- frequency of antigen-reactive T cells in healthy subjects ([2]; two healthy subjects, MBP-reactive cells detected in one of two): 6.3%
- mean frequency of antigen-reactive T cells ([2]; untreated MS patients (n=7)): 18.0±6.3%
- proliferative response of MBP-reactive TCL to antigen ([3]; patient MS-1, dose 20 mg, TCL 2): 25,700 ± 5,266
- proliferative response of MBP-reactive TCL to antigen [3, 12]: 9,498 ± 745
- proliferative response of NBI-5788-reactive TCL to antigen [3, 12]: 772 ± 341
- proliferative response of MBP-reactive TCL to antigen ([3]; patient MS-1, dose 20 mg, TCL 5): 13,102 ± 1,286
- proliferative response of MBP-reactive TCL to antigen ([3]; patient MS-1, dose 20 mg, TCL 10): 54,562 ± 207
- proliferative response of MBP-reactive TCL to antigen ([3]; patient MS-1, dose 20 mg, TCL 14): 23,564 ± 854
- proliferative response of MBP-reactive TCL to antigen ([3]; patient MS-1, dose 20 mg, TCL 26): 48,157 ± 1,207
- proliferative response of NBI-5788-reactive TCL to antigen ([3]; patient MS-1, dose 20 mg, TCL 36): 2,515 ± 532
- proliferative response of MBP-reactive TCL to antigen ([3]; patient MS-1, dose 20 mg, TCL 45): 63,810 ± 1,117
- proliferative response of MBP-reactive TCL to antigen ([3]; patient MS-2, dose 20 mg, TCL 14): 16,000 ± 1,133
- proliferative response of MBP-reactive TCL to antigen ([3]; patient MS-3, Pretreat., TCL 9): 9,736 ± 247
- proliferative response of NBI-5788-reactive TCL to antigen ([3]; patient MS-3, dose 20 mg, TCL 2): 1,785 ± 66
- proliferative response of NBI-5788-reactive TCL to antigen ([3]; patient MS-3, dose 20 mg, TCL 4): 298 ± 41
- proliferative response of NBI-5788-reactive TCL to antigen ([3]; patient MS-3, dose 20 mg, TCL 18): 437 ± 191
- proliferative response of NBI-5788-reactive TCL to antigen ([3]; patient MS-3, dose 20 mg, TCL 30): 557 ± 210
- proliferative response of MBP-reactive TCL to antigen ([3]; patient MS-4, dose 20 mg, TCL 7): 5,308 ± 1,269
- proliferative response of NBI-5788-reactive TCL to antigen ([3]; patient MS-4, dose 20 mg, TCL 18): 5,983 ± 5602
- proliferative response of NBI-5788-reactive TCL to antigen ([3]; patient MS-5, dose 20 mg, TCL 15): 13,151 ± 9,967
- proliferative response of NBI-5788-reactive TCL to antigen ([3]; patient MS-5, dose 20 mg, TCL 39): 6,717 ± 558
- proliferative response of NBI-5788-reactive TCL to antigen ([3]; patient MS-5, dose 20 mg, TCL 43): 3,584 ± 1,068
- proliferative response of NBI-5788-reactive TCL to antigen ([3]; patient MS-6, dose 10 mg, TCL 22): 2,167 ± 53
- proliferative response of NBI-5788-reactive TCL to antigen ([3]; patient MS-6, dose 10 mg, TCL 38): 935 ± 65
- proliferative response of NBI-5788-reactive TCL to antigen ([3]; patient MS-7, dose 5 mg, TCL 12): 1,343 ± 498
- proliferative response of NBI-5788-reactive TCL to antigen ([3]; patient MS-7, dose 5 mg, TCL 28): 2,326 ± 1,300
- proliferative response of MBP-reactive TCL to antigen ([3]; patient MS-7, dose 5 mg, TCL 46): 17,019 ± 2,294
- proliferative response of MBP-reactive TCL to antigen ([3]; patient MS-8, Placebo, TCL 26): 68,704 ± 19,348
- proliferative response of MBP-reactive TCL to antigen ([3]; patient MS-8, Placebo, TCL 28): 47,279 ± 4,539
- proliferative response of MBP-reactive TCL to antigen ([3]; patient MS-8, Placebo, TCL 38): 63,253 ± 5,006
- proliferative response of MBP-reactive TCL to antigen ([3]; patient MS-8, Pretreat., TCL 22): 91,447 ± 3,378
- proliferative response of MBP-reactive TCL to antigen ([3]; patient MS-8, Pretreat., TCL 31): 7,379 ± 123
- proliferative response of MBP-reactive TCL to antigen ([3]; patient MS-8, Pretreat., TCL 47): 47,975 ± 10,326
- IFN-γ production [4]: ~160 pg/mL
